Positions count from the first letter of the chain named. One block for each binder: values may come before it.
Assays:
[1] = molecular target: T1, human wild-type TREM2 (membrane bound, isoform 1) stably overexpressed on HEK293 Flp-In cells (human); experiment: immunofluorescence on live HEK293 Flp-In cells expressing human full-length TREM2 against empty-vector cells; hybridoma supernatant diluted 1:2
T1 construct: also called wt TREM2; human full-length TREM2
T1 chain: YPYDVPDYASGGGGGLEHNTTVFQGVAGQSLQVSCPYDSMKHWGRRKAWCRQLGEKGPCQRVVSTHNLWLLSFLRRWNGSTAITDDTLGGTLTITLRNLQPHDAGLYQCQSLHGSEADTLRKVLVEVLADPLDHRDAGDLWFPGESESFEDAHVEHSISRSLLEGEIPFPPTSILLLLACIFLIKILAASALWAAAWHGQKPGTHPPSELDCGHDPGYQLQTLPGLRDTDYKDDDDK
Procedure: TREM2-reactive supernatants were subsequently screened for their ability to detect TREM2 on the cell surface of HEK293 Flp-In cells stably overexpressing human wild-type TREM2 (Kleinberger et al. 2014). HEK293 Flp-In cells either expressing human full-length TREM2 or empty vector (=control) were cultured in 96-well tissue culture plates, washed twice with PBS, blocked with 2% bovine serum albumin (BSA) in PBS and incubated with the respective TREM2-reactive supernatants (diluted 1:2 in blocking buffer) for 60 minutes on ice. Cells were subsequently washed three times with PBS, fixed with 4% paraformaldehyde for 20 min on room temperature and washed three times with PBS. Binding of TREM2-reactive supernatants was visualized using isotype-specific mouse-anti rat secondary antibodies followed by incubation with a goat anti-mouse tertiary antibody coupled to Alexa-488 (Life Technologies). 4′, 6-diamidino-2-phenylindol (Dapi, Life Technologies) was used as a nuclear counterstain. Images were acquired automatically using a Cytation multi-detection reader (Biotek).

[2] = molecular target: T1, human wild-type TREM2 (membrane bound, …); experiment: cell-based or functional assay

binding result [1]: binds
B1: antibody clone 8A11 (antibody, V domains shown)
VH: EVKLLESGGGLVQPGGSMRLSCAASGFTFTDFYMNWIRQPAGKAPEWLGLIRNKTKGYTTEYNTSVKGRFTISRDNTQNMLYLQMNSLRPEDTATYYCARIGVNNGGSLDYWGQGVMVTVSS
VL: DILIIQSPASLTVSAGARVTMSCKSSQSLLYSENNQDYLAWYQQKPGQFPKLLIYGASNRHTGVPDRFTGSGSGTDFTLTISSVQAEDLADYYCEQTYSYPYTFGAGTKLELK
notes: Rat monoclonal IgG from a hybridoma

binding result [1]: binds
B2: antibody clone 1G6 (antibody, V domains shown)
VH: B1 VH with M18L, A23V, T55A, K56N, Y58F, T64P, N79H, S87T, P90A, V103I
VL: B1 VL with I5N, A15T, A17E, R18K, N35K, S82N, S83I
notes: as for B1

binding result [1]: binds
B3: antibody clone 7A12 (antibody, V domains shown)
VH: B1 VH with T55A, K56N, E61Q, T64P, S87T, P90G, V103I
VL: B1 VL with I5N, A17E, R18K, N34K, F49S, I54M, N59Y
notes: as for B1

binding result [1]: binds
B4: antibody clone 21A3 (antibody, V domains shown)
VH: B1 VH with T55A, K56N, E61Q, T64P, S87T, P90G, V103I
VL: B1 VL with I5N, A17E, R18K, N34K, F49S, I54M, N59Y
notes: as for B1

binding result [1]: binds
B5: antibody clone 18F9 (antibody, V domains shown)
VH: EVKLLESGGGLVQPGGSMRLSCVVSGFTFTDFYMNWIRQAAGKAPEWLGLIRNKVNGYRTEYNPSVKGRFTISRDNIQNMLYLQMNTLRAEDTATYYCARIGINNGGSLDYWGQGVMVTVSS
VL: B1 VL with I5N, A17E, R18K
notes: as for B1

binding result [1]: binds
B6: antibody clone 10C3 (antibody, V domains shown)
VH: B1 VH with K43E, A44T, T64P, V103T
VL: B1 VL
notes: as for B1

binding result [1]: binds
B7: antibody clone 14D8 (antibody, V domains shown)
VH: B1 VH with T55A, K56N, E61V, T64P, S87T, P90G, V103I
VL: B1 VL with I5N, A15T, A17E, R18K, K24R, N34K, N59Y
notes: as for B1

binding result [1]: binds
B8: antibody clone 15C5 (antibody, V domains shown)
VH: B1 VH with T55A, K56Y, T64P, N79D, S87T, P90A, V103I, N105Y
VL: B1 VL with I5N, A17E, R18K, M21V, N34S, N59Y, D91H
notes: as for B1

increase of mature TREM2 in the membrane fraction (quantified immunoblot, normalized to immature TREM2) [2]: ≤ 5 fold
B9: antibody clone 14D3 (antibody, V domains shown)
VH: B1 VH with S7F, K43R, T64R
VL: B1 VL

— patent US20190185565A1 (DEUTSCHES ZENTRUM FUR NEURODEGENERATIVE ERKRANKUNG EV, published 2019)
